Laboratory results published in article PMC3735172.
Where two headings read alike, the source gives them in different places.

Key:
Test in all cases: EMSA
MtAlba(R39) = target: T1, MtAlba(R39) (Methanothermobacter thermautotrophicus, UniProt O27527 1-91, I39R)
T1 sequence: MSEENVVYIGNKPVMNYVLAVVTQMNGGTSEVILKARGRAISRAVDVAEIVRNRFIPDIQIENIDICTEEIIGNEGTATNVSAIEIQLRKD

MtAlba(I39) [1] = target: T2, MtAlba(I39) (Methanothermobacter thermautotrophicus …, UniProt O27527 1-91)
T2 sequence: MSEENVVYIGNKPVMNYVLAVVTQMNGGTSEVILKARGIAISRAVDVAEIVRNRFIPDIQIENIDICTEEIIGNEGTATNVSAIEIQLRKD

MtAlba(I39) [2] = target: T2, MtAlba(I39); remark: listed apart in the source

B1: 36 bp dsDNA (dsDNA)
DNA 1: ATCAATTAAAGCGTTCTACGGCGTTTTAGATCTGAT
DNA 2: ATCAGATCTAAAACGCCGTAGAACGCTTTAATTGAT
Kd (MtAlba(R39)): ~200 nM | binding result (MtAlba(I39) [1]): no binding

UUAAAGCCCGUGGAAGAGCC (ssRNA) [ssRNA]
Kd (MtAlba(R39)): ~1500 nM | binding result (MtAlba(I39) [2]): no binding

B2: tRNAPro (structured_RNA)
RNA: GGGCGAGUAGCGCAGCUUGGUAGCGCAACUGGUUUGGGACCAGUGGGUCGGAGGUUCGAAUCCUCUCUCGUCCACCA
Kd (MtAlba(R39)): ~1000 nM | binding result (MtAlba(I39) [2]): no binding
